Assay results: PMC12356840, “Structural basis for substrate recognition mechanism of human SLC26A7” (Nature Communications, 2025)

Target: the molecule itself
Assay: cryo-EM structure; purified SLC26A7 in 25 mM Tris pH 8.0, 150 mM NaCl, 0.02% GDN, 5-10 mg/ml; apo sample and sample with 20 mM sodium iodide; dimer model obtained by C2 symmetry

B1: human SLC26A7 (solute carrier family 26 member 7) (natural protein, UniProt Q8TE54 1-656, looked up)
chain: MTGAKRKKKSMLWSKMHTPQCEDIIQWCRRRLPILDWAPHYNLKENLLPDTVSGIMLAVQQVTQGLAFAVLSSVHPVFGLYGSLFPAIIYAIFGMGHHVATGTFALTSLISANAVERIVPQNMQNLTTQSNTSVLGLSDFEMQRIHVAAAVSFLGGVIQVAMFVLQLGSATFVVTEPVISAMTTGAATHVVTSQVKYLLGMKMPYISGPLGFFYIYAYVFENIKSVRLEALLLSLLSIVVLVLVKELNEQFKRKIKVVLPVDLVLIIAASFACYCTNMENTYGLEVVGHIPQGIPSPRAPPMNILSAVITEAFGVALVGYVASLALAQGSAKKFKYSIDDNQEFLAHGLSNIVSSFFFCIPSAAAMGRTAGLYSTGAKTQVACLISCIFVLIVIYAIGPLLYWLPMCVLASIIVVGLKGMLIQFRDLKKYWNVDKIDWGIWVSTYVFTICFAANVGLLFGVVCTIAIVIGRFPRAMTVSIKNMKEMEFKVKTEMDSETLQQVKIISINNPLVFLNAKKFYTDLMNMIQKENACNQPLDDISKCEQNTLLNSLSNGNCNEEASQSCPNEKCYLILDCSGFTFFDYSGVSMLVEVYMDCKGRSVDVLLAHCTASLIKAMTYYGNLDSEKPIFFESVSAAISHIHSNKNLSKLSDHSEV
notes: full-length wild-type human SLC26A7 (also known as SUT2), UniProt Q8TE54; Homodimer (domain-swapped) in the cryo-EM structures; both were used to capture the protein on the way to the structure; The iodide-loaded sample had 20 mM sodium iodide throughout the purification; also called SUT2; SLC26A7_apo
stoichiometry N: 2
